Assay results published in the RNAGym collection of RNA variant scans (doi:10.1073/pnas.2313332121).

B1: TPR t1 (parent)
chain: GACCAAUCUGCCCUCAGAGCUCGAGAACAUCUUCGGAUGCAGAGGAGGCAGGCUUCGGUGGCGCGAUAGCGCCAACGUCCUCAACCUCCAAUGCAUCCCACCACAUGAUGAUGCCUGAAGAGCCUUGGUUUUUUG

Variants of: B1
Assay: polymerase ribozyme fitness, log enrichment relative to wild type (log ratio); higher = more active; in vitro selection for triplet polymerase activity
Method in brief: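 Mutant libraries for each subunit of a heterodimeric triplet polymerase ribozyme were made by PCR and then transcribed. Each library underwent one round of in vitro selection in triplicate: annealing with a biotinylated primer, the partner subunit and triplets, frozen incubation at −7 °C, gel excision of extended constructs, streptavidin-bead capture and RT-PCR. Input and output libraries were Illumina-sequenced, and only genotypes with ≥10 input reads and ≥1 read per output were kept. Fitness is the logarithm, base 2, of genotype enrichment over wild-type enrichment, computed from inverse-variance-weighted replicate averages.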

Variant | polymerase ribozyme fitness (log ratio)
C4A U9G C40U G44A U55C C88A G120C | -3.07
C4A A50G C70U A84C C115A | -2.59
C3U U92A | -2.91
C3U G48A G60C G113A | -1.14
C4A A29G U30C A74C A121U | -3.71
C4G A46U G47A | -4.4
C3U G69U A121G U125A | 2.91
C4A C11G A16G G36C C56U G113U | -2.81
C4A U78A C124G | 1.08
C3U U7A A37C G71C | -0.976
C3U G57C C62U C97U A108G C123U C124G | -1.18
C4G A50U | -3.4
C4A A119C G120A G127U | -0.47
C4A U32C G61A U106A G127U U130G G135U | -2.56
C4A C56A G69U A90C | -2.84
C4A A46U C56U C72G C123G | -4.32
C4A G128C | -1.53
C4G A26U A75U | -4.4
C3U G52U G57U C82A G122A | -3.12
C4A G17U C73U | -3.37
C3U U54G A75G U92C | -2.3
C4G A46U C53U C70A | -2.97
C3U G63C G110A | -2.26
C4A A90U | -2.78

Variant | polymerase ribozyme fitness (log ratio)
C3U U9A C123A | 1.32
C3U G63A C76U G110A C124U | -5.42
C4A C73U | -1.49
C3U G52A A121U | 1.95
C4G A5U C73G C89U C101G G120A G135A | -3.57
C3U G93A C102U | -2.82
C3U G48U C49G C99U | -4.65
C4A A84C C115U G135U | -3.92
C4G A6C C8G G48U C72G C76G A95U C124U | -4.99
C4G A50U C72G | -3.42
C3U U9A G69C C82A | -1.37
C3U U30G C123A C124U | -5.14
C3U G120U | -0.507
C4A C11G C13A C53U G69C U81G G110A | -6.32
C3U U55G | -0.611
C4A U9G G42C | -3.15
C4A G69U G110A U112A G117A | -3.21
C4G A5U C76U | -2.75
C4A U7G A91U | -4.91
C3U U109G G110A | -4.81
C3U U78C | 0.0101
C4A G71A A84C G117U | -6.14
C4A A74U | -1.77
C4A A74G | -1.14

Variant | polymerase ribozyme fitness (log ratio)
C4A G10U A84G | -2.55
C4A C40U C114U | -4.58
C4G C8A C89A G120C | -0.0855
C3U G58A C101G | -2.57
C4G A66G C72U C80U C123A | -2.88
C3U G69U | 0.198
C3U G69C | -1.44
C3U G113A | -1.68
C4A C56A | -2.53
C4A C56G | -1.83
C4A C56U | -0.847
C4A C8A G36A C72G C99G C104A C124U | -6.92
C3U U7G C20U U21G G71U G110U C124G | -5.25
C4A A43G U130C | -2.6
C4G A18U G25C C62A A111U | -6.22
C4A A6C A46C C49A C72G A84C A119U C123A U126G | -2.77
C4A C40U C53U G57U A83C G113U | -5.8
C4A G48A G57A C85U C101A | -4.21
C3U G117A U126A | -5.16
C3U G48A C72U U129G | -4.31
C4A A6C C53A C82A G117C | -7.24
C3U G60A U92A | -3.06
C4A C64U | -1.24
C3U G47U C53G U96G C104U A118G C124U | -1.09

Variant | polymerase ribozyme fitness (log ratio)
C4A U87G | -1.28
C4A A18C G42U C86G C114G | -3.47
C3U U9G | 0.724
C3U G61U C80G | -5.52
C3U G48A C97A | -5.8
C4A U59A C88A | -2.43
C3U G93U | -1.95
C4A G71A A100U C123U | -2.04
C4A C12A C13A A18U G44A G51A U59A U87A G110C G120A U126G | -7.29
C3U G57U G69A | -3.04
C4A U9A C72A U78C | -0.731
C3U U112A G120U U125G | -2.25
C3U U59G G113A | -1.89
C4A G60U G127A | -2.51
C4G A29G A74C A83U | -4.38
C4G A5U C8U C101G C104U | -3.99
C4A G52A C73A | -2.51
C4A C56G A84G C89U C115A | -4.85
C3U G107A C124G G128A U133G | -4.53
C4A A43G G47C C64U C86G U125G G127C | -2.57
C4A C72A G113A | -3.57
C3U U7G G42U | -1.73
C4G A91C G120U | -1.84
C4A C12A C70U C86G G120U G128C | -2.75

Variant | polymerase ribozyme fitness (log ratio)
C4A C40U C62A U112A | -2.53
C4G A121C | 0.946
C4G A6U A27U A111U | -4.8
C3U U9C C88G U116C | -0.482
C4A U32C G69U G113A | -2.74
C4A G63U A119G | -0.807
C3U U130C | 0.391
C3U G60A | -0.489
C3U G60C | -0.334
C4A C8U | -0.352
C4G A6U C72G A84C C115A | -5.17
C3U U54C G61A A90C | -0.844
C4A G69U U106C C124U | -1.05
C4A G36C C104U A119G A121U G128U U129A | 0.665
C4A G110A | -2.19
C4A A16C C72A C101A C124U U130A | -4.51
C4A U7C C49G A50U C88G | -2.88
C4A G52C C114U | -6.04
C3U G58A | -0.199
C3U G58C | -0.467
C4A G63C G77C G128U | -3.69
C4A G63A A83U A118G | -3.12
C4A A18C A43U C72A | -3.77
C4A C102U C123A | -3.39

Variant | polymerase ribozyme fitness (log ratio)
C4A A37U G93A | -2.66
C4A U87C G120A G127A | -0.66
C4A C8A U9C C82U C114U | -2.35
C4A C49G A83G C88A C102U G120C | -5.38
C4A C12G G117A G128C | -1.61
C4A C72U G110A U129G | -5.59
C4A U7G G35U G63C G65U C98U G117U | -6
C4A G135U | -2.46
C4A G10C C98U G117A A121U | -4.42
C3U G71U C101G | -3.08
C4A C8G A18C G23C U112G U116A | -5.14
C4A G17A C53G C70G U106G G113A C115U U131A | -6.14
C3U G47A C49G G69A | -4.22
C4A C13U A24C C40G A111G | -5.59
C3U G52A | -0.0464
C4A A18G G71U C89A A100C G113A C124U | -4.08
C3U G61A | -0.131
C3U G61C | -2.38
C4G A43U A46G C62U G63A U78C C114U G117U | -5.92
C4A C72A C114U C124A | -2.33
C4A U59C A90C | -3.84
C4A U7A G71A | -1.76
C4A U14G C49A C73G C86U | -4.9
C4A G39C A75G C114G G120A | -5.14

Variant | polymerase ribozyme fitness (log ratio)
C4A U14A | -5.35
C4A A5U C15G C88U G120C | -4.83
C3U G48U | -0.574
C3U G48A | -1.92
C4A G42A | -2.74
C3U U14A A111U G120U | -5.57
C4A A24G | -4.5
C4G A29G U54C | -2.97
C4A A5G A111C | -0.259
C4G A27U G36C C49G C79U C123G | -5.37
C4A U78A G93C C115A | -2.87
C3U G69C U87G C124A | 0.486
C4A C13U C124A | 0.115
C3U G45U | -1.13
C4A C20A | -4.2
C4G A41U | -2.07
C4A A41G U106A | -1.87
C4A C72G | -1.81
C3U U9A A37U G113A | -0.314
C4A C8G G36U G45U U78A C114U | -5.41
C3U U7G A29G C101U U106C | -4.76
C4A G52A C53A A90U U130C | -3.34
C4A G48C C62A | -3.18
